According to patent publication US20210155689A1 (SHANGHAI PHARMAEXPLORER, published 2021):

What was measured:
[1] = biological target: human LAG-3 protein with hFc tag (hLAG-3-hFc protein) (human) (UniProt P18627); test: FACS, blocks LAG-3-hFc binding to MHC II on Raji; 22.222 nM
[2] = biological target: human LAG-3 (full length, on the cell surface) (human) (UniProt P18627); test: cell-based or functional assay
[3] = biological target: human LAG-3 protein with hFc tag (hLAG-3-hFc protein) (human) (UniProt P18627); test: FACS, blocks LAG-3-hFc binding to MHC II on Raji; 200.000 nM
[4] = biological target: monkey LAG-3 (full length, on the cell surface) (monkey); test: FACS, HEK293-cLAG-3; 0.320 nM
Chain of monkey LAG-3 (full length, on the cell surface) (monkey) (P18627 other isoform, or with tags, fused parts or gaps limits assumed): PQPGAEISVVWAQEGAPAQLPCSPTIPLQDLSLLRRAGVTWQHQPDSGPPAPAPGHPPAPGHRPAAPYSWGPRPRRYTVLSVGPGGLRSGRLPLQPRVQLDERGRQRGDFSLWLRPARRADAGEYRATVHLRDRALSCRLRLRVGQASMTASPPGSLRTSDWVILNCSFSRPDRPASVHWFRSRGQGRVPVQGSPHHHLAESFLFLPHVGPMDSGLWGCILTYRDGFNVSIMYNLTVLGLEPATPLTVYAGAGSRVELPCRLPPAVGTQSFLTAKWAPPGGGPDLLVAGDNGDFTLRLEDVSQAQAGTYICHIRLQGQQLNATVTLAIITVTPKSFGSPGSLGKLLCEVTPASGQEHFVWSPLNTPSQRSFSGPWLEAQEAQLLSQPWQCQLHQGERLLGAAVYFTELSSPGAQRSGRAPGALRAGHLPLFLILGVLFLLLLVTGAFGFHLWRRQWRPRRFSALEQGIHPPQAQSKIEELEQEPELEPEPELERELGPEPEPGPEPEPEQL

[5] = biological target: monkey LAG-3 (full length, on the cell surface) (monkey); test: FACS, HEK293-cLAG-3; 0.064 nM
[6] = biological target: human LAG-3 protein with hFc tag (hLAG-3-hFc protein) (human) (UniProt P18627); test: FACS, blocks LAG-3-hFc binding to MHC II on Raji; 0.823 nM
[7] = biological target: monkey LAG-3 (full length, on the cell surface) (monkey); test: FACS, HEK293-cLAG-3; 0.000 nM
[8] = biological target: human LAG-3 (full length, on the cell surface) (human) (UniProt P18627); test: FACS, HEK293-hLAG-3; 40.000 nM
[9] = biological target: human LAG-3 (full length, on the cell surface) (human) (UniProt P18627); test: FACS, HEK293-hLAG-3; 0.013 nM
[10] = biological target: monkey LAG-3 (full length, on the cell surface) (monkey); test: FACS, HEK293-cLAG-3; 0.013 nM
[11] = biological target: human LAG-3 protein with hFc tag (hLAG-3-hFc protein) (human) (UniProt P18627); test: FACS, blocks LAG-3-hFc binding to MHC II on Raji; 0.274 nM
[12] = biological target: human LAG-3 protein with hFc tag (hLAG-3-hFc protein) (human) (UniProt P18627); test: FACS, blocks LAG-3-hFc binding to MHC II on Raji; 66.667 nM
[13] = biological target: monkey LAG-3 (full length, on the cell surface) (monkey); test: FACS, HEK293-cLAG-3; 1.600 nM
[14] = biological target: monkey LAG-3 (full length, on the cell surface) (monkey); test: FACS, HEK293-cLAG-3; 40.000 nM
[15] = biological target: human LAG-3 (full length, on the cell surface) (human) (UniProt P18627); test: FACS, HEK293-hLAG-3; 0.000 nM
[16] = biological target: human LAG-3 (full length, on the cell surface) (human) (UniProt P18627); test: FACS, HEK293-hLAG-3; 0.064 nM
[17] = biological target: monkey LAG-3 (full length, on the cell surface) (monkey); test: FACS, HEK293-cLAG-3; 8.000 nM
[18] = biological target: human LAG-3 protein with hFc tag (hLAG-3-hFc protein) (human) (UniProt P18627); test: FACS, blocks LAG-3-hFc binding to MHC II on Raji; 2.469 nM
[19] = biological target: human LAG-3 (full length, on the cell surface) (human) (UniProt P18627); test: FACS, HEK293-hLAG-3; 0.320 nM
[20] = biological target: human LAG-3 protein with hFc tag (hLAG-3-hFc protein) (human) (UniProt P18627); test: FACS, blocks LAG-3-hFc binding to MHC II on Raji; 0.000 nM
[21] = biological target: human LAG-3 protein with hFc tag (hLAG-3-hFc protein) (human) (UniProt P18627); test: FACS, blocks LAG-3-hFc binding to MHC II on Raji; 7.407 nM
[22] = biological target: human LAG-3 (full length, on the cell surface) (human) (UniProt P18627); test: FACS, HEK293-hLAG-3; 1.600 nM
[23] = biological target: human LAG-3 (full length, on the cell surface) (human) (UniProt P18627); test: FACS, HEK293-hLAG-3; 8.000 nM
[24] = biological target: monkey LAG-3 (full length, on the cell surface) (monkey); test: FACS, HEK293-cLAG-3; 200.000 nM
[25] = biological target: human LAG-3 (full length, on the cell surface) (human) (UniProt P18627); test: FACS, HEK293-hLAG-3; 200.000 nM
[26] = biological target: T1, human LAG-3 ECD (antigen protein of the affinity test) (human, UniProt P18627 23-450); test: SPR, antibody captured by anti-human Fc IgG on CM5; ratio of KD values
T1 sequence: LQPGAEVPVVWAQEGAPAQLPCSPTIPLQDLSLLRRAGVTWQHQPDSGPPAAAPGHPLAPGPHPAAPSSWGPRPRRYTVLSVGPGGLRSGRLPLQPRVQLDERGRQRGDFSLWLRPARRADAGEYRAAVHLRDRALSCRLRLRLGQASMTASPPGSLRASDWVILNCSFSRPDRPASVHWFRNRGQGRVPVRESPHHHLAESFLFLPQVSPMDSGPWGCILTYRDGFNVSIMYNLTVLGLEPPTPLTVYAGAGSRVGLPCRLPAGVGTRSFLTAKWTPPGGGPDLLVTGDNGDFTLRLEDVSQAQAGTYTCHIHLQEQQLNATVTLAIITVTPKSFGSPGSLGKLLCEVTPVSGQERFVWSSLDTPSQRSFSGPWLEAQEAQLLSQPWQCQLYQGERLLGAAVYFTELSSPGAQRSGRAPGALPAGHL
Protocol: First, anti-human Fc IgG was immobilized on the surface of the CM5 chip to 6000-10000 RU by amino coupling method, with FC1 as the reference channel. The coupling process was as follows: a freshly prepared 1:1 mixture of 50 mM NHS and 200 mM EDC was activated for 7 minutes, then injected with 10-50 ug/ml anti-human Fc IgG diluted in 10 mM sodium acetate ph5.0 buffer. The remaining activated sites were blocked with 1M ethanolamine. Then, HBS-EP+ buffer was used to dilute the antibody to be tested to 5 ug/ml (adjustable according to the capture level) and the antibodies were captured on the chip at a flow rate of 10 ul/min to obtain a response value of about 100˜300 RU. Then the antigen protein was diluted to 100 nM (the highest concentration was tentatively 100 nM), and flew through the chip surface at a flow rate of 30 ul/min. If enough signal value was obtained, the antigen-protein was diluted by several concentration gradients, and flew through the chip surface respectively. At the end of each cycle, the chip surface was regenerated with 10 mM Glycine at pH 1.5. The kinetic rate constant needed to be subtracted from the blank control, and the data was fitted with the global fit analysis method 1:1 combination model. The dissociation equilibrium rate constant (KD) was calculated according to the following formula: KD=kd/ka.
The method was the same as that in Example 5.

B1: 553G8G8 (mouse antibody purified from hybridoma) (antibody, V domains shown)
VH: RVQLKQSGPGLVQPSQSLSITCTVSGFSLIKYGVHWVRQSPGEGLEWLGVIWRGGITDYNAAFMSRLSITKDNSKSQVFFKMNSLQADDTAIYYCAKWDGPLAMDYWGQGTSVTVSS
VL: DVQMIQSPSSLSASLGDMVTMTCQASQGTNINLNWFQQKPGKAPKLLIYGASNLEDGVPSRFSGSRYGTDFTLTISSLEDEDMATYFGLQHSYLPLTFGAGTKLELK
Binder B1 has an Inhibition rate (%) [1] of 95.8%, a mIL-2 (pg/mL), antigen-specific T lymphocyte stimulation test; antibody 0.016 ug/mL [2] of 98.2 pg/mL and a mIL-2 (pg/mL), antigen-specific T lymphocyte stimulation test; antibody 0.08 ug/mL [2] of 134 pg/mL. It also gave a mIL-2 (pg/mL), antigen-specific T lymphocyte stimulation test; antibody 2 ug/mL [2] of 251 pg/mL, a mIL-2 (pg/mL), antigen-specific T lymphocyte stimulation test; antibody 10 ug/mL [2] of 352 pg/mL and an Inhibition rate (%) [3] of 95.9%. The Mean fluorescence intensity [4] was 8.8 MFI, the Mean fluorescence intensity [5] was 4.2 MFI and the Inhibition rate (%) [6] was 15.2%. It also gave a Mean fluorescence intensity [7] of 3.2 MFI, a Mean fluorescence intensity [8] of 79.4 MFI and a Mean fluorescence intensity [9] of 3.9 MFI. The Mean fluorescence intensity [10] was 3.5 MFI, the Inhibition rate (%) [11] was 8.1% and the Inhibition rate (%) [12] was 96%. For the same binder, the Mean fluorescence intensity [13] was 28.1 MFI, the Mean fluorescence intensity [14] was 112 MFI and the Mean fluorescence intensity [15] was 2.7 MFI. It also gave a Mean fluorescence intensity [16] of 7 MFI, a Mean fluorescence intensity [17] of 77.7 MFI and an Inhibition rate (%) [18] of 45%. The Mean fluorescence intensity [19] was 17.1 MFI, the Inhibition rate (%) [20] was -12.4% and the Inhibition rate (%) [21] was 93.8%. The Mean fluorescence intensity [22] was 44.4 MFI, the Mean fluorescence intensity [23] was 68.4 MFI and the Mean fluorescence intensity [24] was 128 MFI. For the same binder, the Mean fluorescence intensity [25] was 81 MFI.

B2: 405B8H3-1 (D→E) (humanized antibody with hot spot mutation) (antibody, human IgG4, V domains shown)
VH: QVQLVQSGAEVKKPGASVKVSCKASGYTFTDYEMHWVRQAPGQGLEWMGATDPETGNSAYNQKFKGRVTMTRDTSTSTVYMELSSLRSEDTAVYYCISTGWNDWGQGTTVTVSS
VL: DIQMTQSPSSLSASVGDRVTITCKASQDINSYLSWFQQKPGKAPKSLIYRADRLLEGVPSRFSGSGSGTDFTLTISSLQPEDFATYYCLQYDEFPYTFGQGTKLEIK
notes: made as the humanized antibodies (human IgG4 constant region); also called 405B81-13-1 (D→E); hot-spot mutated antibody
In the case of B2, the “fold increase of affinity against the chimeric antibody 405B8H3” value [26] is reported as 1.5 times.

B3: 556F6B8-3 (D→E) (humanized antibody with hot spot mutation) (antibody, human IgG4, V domains shown)
VH: QVQLQESGPGLVKPSETLSLTCTVSGFSLIKYGVHWIRQPPGKGLEWIGVIWRGGITDYNAAFMSRVTISKDTSKSQVSLKLSSVTAADTAVYYCARWEGPLAMDYWGQGTTVTVSS
VL: DIQLTQSPSFLSASVGDRVTITCKASQDVGTTVAWYQQKPGKAPKLLIYWASTRHTGVPSRFSGSGSGTEFTLTISSLQPEDFATYYCQQYSSYPYTFGQGTKLEIK
notes: made as the humanized antibodies (human IgG4 constant region); also called humanized antibody 556F6B8-3 with hot spot mutation
B3 was tested, and the “fold reduction of affinity against the corresponding chimeric antibody” value [26] was 12.5 fold.
